Data from the Human Domainome abundance scans (Beltran et al. 2025).
± gives the uncertainty stated by the source.

B1: Peroxisome proliferator-activated receptor delta, residues 71 to 145; numbered along this chain, Q03181 (parent)
chain: NMECRVCGDKASGFHYGVHACEGCKGFFRRTIRMKLEYEKCERSCKIQKKNRNKCQYCRFQKCLALGMSHNAIRF

Variants of: B1
Assay: abundance fitness (aPCA) (normalised: wild type 0, dead -1); higher = more abundant; growth selection in yeast, the domain comes from the species named
Conditions: Homo sapiens

Variant	abundance fitness
H15M	-0.125 ± 0.05
N1P	-0.475 ± 0.21
R74F	0.049 ± 0.18
K25S	0.105 ± 0.038
L66C	-0.15 ± 0.077
A72G	0.059 ± 0.03
K46F	0.015 ± 0.052
L64H	-0.274 ± 0.1
A11M	-0.337 ± 0.069
K25L	0.112 ± 0.033
C7K	-0.63 ± 0.13
F75R	0.066 ± 0.054
E3S	-0.033 ± 0.041
E42F	-0.139 ± 0.089
M2K	-0.249 ± 0.082
R59D	-0.361 ± 0.13
K35M	-0.079 ± 0.06
N51W	-0.408 ± 0.071
Q61T	-0.304 ± 0.062
E3H	-0.027 ± 0.077
V18W	-0.721 ± 0.11
K50Q	0.077 ± 0.056
G67N	-0.36 ± 0.1
K35E	0.063 ± 0.056

Variant	abundance fitness
F27W	-0.787 ± 0.094
S44W	-0.314 ± 0.058
A20D	-0.99 ± 0.35
C24R	-0.823 ± 0.091
K46C	-0.046 ± 0.052
K40Q	-0.05 ± 0.05
L64V	-0.022 ± 0.038
A20T	-0.057 ± 0.05
N1L	-0.455 ± 0.084
C4M	-0.461 ± 0.11
E42A	-0.179 ± 0.037
M2V	-0.155 ± 0.051
C21Q	-0.763 ± 0.13
G26R	-0.099 ± 0.036
H70E	0.172 ± 0.091
S12H	-0.238 ± 0.092
H15N	-0.341 ± 0.12
C45K	-0.927 ± 0.17
F27P	-0.876 ± 0.14
T31Y	-0.46 ± 0.17
N1A	-0.179 ± 0.067
S44T	-0.049 ± 0.05
R33Y	-0.019 ± 0.13
F14H	-0.098 ± 0.077

Variant	abundance fitness
L36R	-0.26 ± 0.04
N51F	-0.028 ± 0.12
E3T	-0.102 ± 0.047
M68D	-0.696 ± 0.16
C45W	-0.864 ± 0.12
F28P	-0.406 ± 0.077
R43K	0.078 ± 0.051
E22M	-0.205 ± 0.062
I47D	-0.126 ± 0.054
R43A	-0.064 ± 0.049
G23N	0.109 ± 0.078
S44G	0.055 ± 0.03
R59N	-0.704 ± 0.2
G8L	-0.598 ± 0.07
K49E	0.144 ± 0.15
S12C	-0.103 ± 0.069
N1G	-0.212 ± 0.049
L66G	-0.419 ± 0.051
C41G	-0.684 ± 0.089
R29C	-0.009 ± 0.064
L36A	-0.135 ± 0.042
M34Q	0.136 ± 0.056
L64M	-0.188 ± 0.058
Q56A	0.074 ± 0.035

Variant	abundance fitness
R30A	-0.359 ± 0.055
A20C	0.139 ± 0.06
Y16Q	-0.034 ± 0.057
K49W	0.006 ± 0.16
H19D	0.205 ± 0.059
G26E	0.127 ± 0.046
G23S	0.146 ± 0.034
K62R	-0.193 ± 0.041
K25M	0.188 ± 0.042
G8A	-0.382 ± 0.052
N53G	-0.033 ± 0.035
F14M	-0.059 ± 0.053
Y57T	-0.77 ± 0.16
R5Q	0.113 ± 0.047
G26H	0.221 ± 0.066
C21Y	-0.599 ± 0.15
R74W	-0.084 ± 0.06
F60A	-0.941 ± 0.14
M34K	-0.074 ± 0.06
R30Y	-0.056 ± 0.087
C4K	-0.775 ± 0.13
H19E	0.136 ± 0.046
M2A	-0.526 ± 0.091
K50D	0.094 ± 0.059

Variant	abundance fitness
R33T	0.129 ± 0.055
F28D	-0.845 ± 0.2
L66T	0.086 ± 0.049
R74C	-0.141 ± 0.099
G13D	-0.103 ± 0.056
F60R	-0.798 ± 0.084
F14Q	-0.064 ± 0.056
H19M	0.122 ± 0.047
C24F	-0.364 ± 0.17
K40I	0.061 ± 0.089
C55A	-0.806 ± 0.14
F75T	0.171 ± 0.069
F60D	-0.633 ± 0.19
M34D	0.192 ± 0.054
K10I	-0.052 ± 0.071
F14N	-0.066 ± 0.067
A11H	-0.218 ± 0.1
M68F	-0.529 ± 0.11
G23H	0.26 ± 0.088
V6S	-1.07 ± 0.14
H19A	0.11 ± 0.037
F75Y	0.026 ± 0.072
R30I	-0.31 ± 0.1
G26C	-0.139 ± 0.058

Variant	abundance fitness
I73H	-0.017 ± 0.069
I73P	0.215 ± 0.044
F28M	-0.156 ± 0.081
R74S	0.093 ± 0.046
K35W	-0.535 ± 0.091
A65L	-0.098 ± 0.036
Q56T	-0.321 ± 0.056
S44H	0.073 ± 0.065
C4Y	-0.693 ± 0.14
Y16E	-0.023 ± 0.047
M34A	-0.112 ± 0.049
H19P	-0.028 ± 0.042
E22D	-0.148 ± 0.074
M2R	-0.417 ± 0.048
G13Y	-0.385 ± 0.096
K10P	-0.268 ± 0.057
N1D	-0.049 ± 0.066
E39K	0.017 ± 0.057
Q61A	-0.069 ± 0.039
Y38N	-0.72 ± 0.23
I32R	-0.514 ± 0.068
Q61M	-0.061 ± 0.053
K50R	-0.06 ± 0.035
A65D	0.092 ± 0.056

Variant	abundance fitness
D9H	-0.668 ± 0.2
I32P	-0.869 ± 0.14
L66V	0.113 ± 0.035
R30D	0.026 ± 0.065
V6K	-0.745 ± 0.14
C21W	-0.881 ± 0.14
F60Q	-1.04 ± 0.21
R33D	0.177 ± 0.069
A20I	-0.023 ± 0.11
C55E	-1.03 ± 0.22
E37I	-0.069 ± 0.089
T31N	-0.967 ± 0.28
H70M	0.09 ± 0.08
H70W	-0.177 ± 0.072
N51T	-0.002 ± 0.062
H70C	-0.206 ± 0.12
K35N	0.04 ± 0.062
E42H	-0.195 ± 0.08
Q56N	-0.145 ± 0.084
K35Q	0.093 ± 0.048
E3I	-0.044 ± 0.081
C63V	-0.912 ± 0.12
L64G	-0.805 ± 0.079
